The DeepSol protein solubility set

Assay: soluble on expression in E. coli; label from the status in PepcDB or PDB records

| Sequence | soluble on expression in E. coli |
| --- | --- |
| MGSDKIHHHHHHMKKKTAVVFGTFAPLHQGHIDLIQRAKRQCDQVWVVVSGYEGDRGEQVGLTLQKRFRYIREAFRGDELTLVCKLDETNLPRYPMGWQEWLDQMLAEISYDETQQELIFFVGEADYQQELSNRGFETVLQERKFGISATMIRENPSKYWKNIAQPFRRQFTKKVLIMGSASNGKTTLAKDLARYYDAPVSLEYAREYQIKNNVRDDELTPKDYYYLLLGQYDQTSKLIDSNANRGLVIADTNSLVTKGYYDYYMETEDQGDLSGETFDNLFVSILAKEKWDLILFVQPVGSYVNDGFRDMTMAEDHIRHSFSQHLDHMRERYLTTIPLVYLAEDYLGNYEAAKVAIDAIYQAD | not soluble |
| MGSDKIHHHHHHMKKLENKKSSSIKLETVRRKTINLSETEFIKIDFLTHWETLPIVLKPNIDYLDLADWIESSQNFIETKLLKYGAILFRGFNVDTATTFERVCLALCSDLFNENGEHPRKSVSGKVYTPVSYPADKKLLWHNENSFNYSWPRKILFGCLQPAQQGGETPIVDSRIVFQLIDPKIRERFIDKKVMYIRNYGDRLGLNWETVFQTSDRLEVEAACTKAAIDFEWKTGNRLRTIAVRPAVVKHPQTKEMSWFNQAQHWHPACLDSQTRESLLSMFKQEDLPRNCYYGDGSLIEDSVLEEICGVYQQLEVSFPWKRGDLLLLDNLLTAHSRNSYMGERQLLVAMGEMANFEDV | not soluble |
| MGSDKIHHHHHHMKKLLAIGILCIMVTAVMSGCVSEKEININNSNKITTNMPVSEKNITKILKYAKNMNLIYYDENGNIVNPYNGDKWKYKVFIDATGQKFLLKNKDDPVPSWAKEKLGDNFKVINVPLTRVIVMSSTEIALMEAINDDGSVIGSVKGIMWGKSYKWYFKDINKSLAEGKIIDVGSSSNPNWDKIIEINPQVIFVYPGYDGDKIIAKCKELGITYVADAEYLENDPLGRCEWVKMFAAFYNKEPEAKRYFEKVEDNCLKVINKTKNCPKVTVAWGYNSQWGCYVPENNSYVAKEIMFYCNGDYIFKDLNGTGSAKINYETFAERAKDADVWVVPSSTAWLSTFKEDNPGYETFKAVKNGRVFCESDDYWQLGLLKTDEVIMDLATILHPEAFKGRKTHFFLKYNIENNTATPFIAK | not soluble |
| MGSDKIHHHHHHMKKLVFDYEMKLSFSSPVTDHRFQLRCIPATGPRQQVIDVAVKIEPDVELETTIDSFDSVVMTGFIPEPHTMFNYSVTGIAFVDNAHIKSEIYKPLYRFNSALTVPGPAIEALIGICHERIVSLPADCTPIDQAREVMDEVFKTFVYTPASTTIRTTAEEAFAQRKGVCQDYAHVMLSVCRHVGLTARYIAGLLGGEGATHAWVEIYHDGRWVGLDPTHNRMVDDNYITIAHGRDYRDCMLDIGIFSGCDVKQDQWVNASVHEQGY | not soluble |
| MGSDKIHHHHHHMKKQPLAYRMRPSNIDEVIGQQHLVGEGKIIRRMVDAGQLSSMILYGPPGVGKTSIAQAIAGSTDTHYKLLNAVVNNKKDMEIVVEEAKMSGQLILILDEVHRLDKGKQDFLLPHLEKGLLILIGATTANPFHSINPAIRSRCQIFELTPLTTDEIKVALTRALTDKTHGLGEEPVVISDEALAHFAFACGGDVRSALNGLELAVRSTQPNVKGEKEITLSVAEECIQRKSFHHDKDGDAHYDVLSAFQKSIRGSDVNAALHYLARLIEAGDLVSIGRRLLVIAYEDIGLANPQAGPRTLAAIEAAERLGFPEGRIPLANAVVELCLSPKSNSAYVALDAAIADIRKGHVGSVPAHLKDAHYKGAEQLGRGIGYKYPHDYERGWVKQQYLPDSLKSRAYYEPKRTGKFEDALADVYEKLRKSTFSKES | not soluble |
| MGSDKIHHHHHHMKKRLGSQTARIDSKPRIVSAVSMVGPKEGRGPLKDYFDIILSDDMNGEESFEKAESNMLYTVITEVIKKSNLTENDIDYLFAGDLLNQITSSSFAARDAKIPFYGLYGACSTMTESLSIAAMIMDGGFADYTIAATSSHFSAAERQFRYPLEYGSQRKPDAQWTVTGAGAMLLARQGDFPYITFVTAGKVKDYGITSPDSMGEAMAPAAVDTIKQHFKDTGRTPQDYDVIATGDLGRVGKKITEDLLKKEYGYDMSNIYMDCGEKIFNCDEQDTNSGGSGCGCSAVVDCGYIYKNMLSGKIKKALLISTGALMSTTSNLQGESIPGIAHAVSIEFGGMKNE | not soluble |
| MGSDKIHHHHHHMKKYMRTCSPRLAKEKYCTGCMACSDACTHDAIKIVEKNCMPFVKVDTHKCMNCHLCEKACPIITPVKKNRAEEMNVYGGWANDEQTRIDAASGGGFSGLAQSFFHLHKEDKVAVIGATLANNRVYHQLIEQEKDIVLLTNSKYIQSDTQGIYKEVIERLKTGYWILFSGCPCQIAGLYGFLGKKRDSERLITIEVVCHGIASYEALDLHLKYYNSSRIYRFRDKRHGTQDWKQSQCTTIEQNGEEIKLKRKDDMFYAIYAGWMLDRKSCSNCQFAEINRVADITIADFWGLQVPDYYKQGVSLIIANNNKADTMIKAADAIYTFKESLRTAINGNPHLFTGYKLIQFHPIVMWPDFFRKILPKRIRFKILTNRMPYKLFWALYKLGTIYLVKYQKKQLISKFQKDDNLLKLLNNANRGGGKMA | not soluble |
| MGSDKIHHHHHHMKLEKILQDLEQNHNLRTLTPLKHENKFVYKQDHKLLNLVGNDYLYLASSKELKAEFLNTLKEQDLFFSSSSSRSLSGNFEIYEKLESFLKTKFKDKEILHFNSGYHLNISCIAALSSVSKTLFLTDKFIHASMIDGLRLGRADFFRFHHKDMNHLESLIQKHYENYENIIVLSEALFSMDGDFSDFKTLCELKRRYDKIKLYIDEAHSVGCFDEEGLGLVKKLALENEVDFLVFTFGKALASMGACIICDEKYKKFFINKARAFIYSTALPPINVAWTQFIFKKMPYFKKEREKLELLSTFFKSKLQEKNHIVLGDAYIICLLLGENKKALEISQKLQKAGFFAPAIKEPTVPKNTARIRFSLHAGLNTEELERIIELL | not soluble |
| MGSDKIHHHHHHMKLMRIQEMEEYILSHGTVSLDELCQVFNVSKNTVRRDINKLTEKGAIEKVYGGVTSIEKTALVPFENRTIQHQDEKTKIAHYASRFIEDHDLVFIDSGTTTKSILDTLDPAKNVTILTNSLDIINAASALKNINLIIIGNNYKRKTRSFVGMDDPAMLDKYNINKAFMSATGTTLTHGLTNSDLLEYEIKKRISEKAKEVYLLADHSKFGKSTLLTYAPFDRLHCIVTSQPLDDEYTQYCNEHQIGIHLA | not soluble |
| MGSDKIHHHHHHMKLRILSDLHIEHAMPQAVPACDADIVILAGDIANGRDGIDWAARTFGQPLIYVPGNHEYYEGNVDAVDRLMADAAATHPGVHLLNGAVAEFSGASGRVRVLGTTWWTDYCLFGTDRREASMQACSAVMLDHRLIELNGDDGHLRHFSPEDALARHHIASAWLAGQLALPFDGKTVVVTHHGPDLGSLDPRYSHDLVSGGFLSRRPDLVAQADLWIHGHTHTSFDYCIDTSRVVCNPRGYVSRRTGELENSRFDWCCVVEI | not soluble |
| MGSDKIHHHHHHMKLVVATNFDDSLLEGLKRYPDVKYIFGSFKRTITGHGRAGFIVPHIKEEQFETHISLAHSYGIKFLYTMNTNTLLGKEYDTEFIGKVMKEVDKLVNFGVDGFIVALPFLIRLIRTEYPDLEVSASSFSRIRNVREVEEYTNLGVNTIIMHEDANRDFKLLKEVAALSRANRFEIELILNNSCLYGCPFRLTHDNISSVTSMVNGVNDVWFEYPVLLCATDVLNDPANLIRSRWIRPEDIKYYEEIGINRFKIAGRNKKTDWILRVVKAYAERKYEGDLLDLVSYPQGRAATKAVQMVNGPSSYFILTSVRIDNTKFPKGWIKFFFTNDCDTRSCKECKYCDIVAERVMTVNGEPFKSSEWSIRQPYPINIIPKFKERK | not soluble |
| MGSDKIHHHHHHMKLYKLLILDIDGTLRDEVYGIPESAKHAIRLCQKNHCSVVICTGRSMGTIQDDVLSLGVDGYIAGGGNYIQYHGELLYNQSFNQRLIKEVVCLLKKREVAFSIESQEKVFMNQKAKEIFETMNQLKGTNSCINKQHIQEKITYENNIEEYKSQDIHKICLWSNEKVFDEVKDILQDKMELAQRDISSQYYEIIQKDFHKGKAIKRLQERLGVTQKETICFGDGQNDIVMFQASDVTIAMKNSHQQLKDIATSICEDIFDNGIYKELKRRNII | not soluble |
| MGSDKIHHHHHHMKMEELFKKHKIVAVLRANSVEEAKEKALAVFEGGVHLIEITFTVPDADTVIKELSFLKEKGAIIGAGTVTSVEQCRKAVESGAEFIVSPHLDEEISQFCKEKGVFYMPGVMTPTELVKAMKLGHTILKLFPGEVVGPQFVKAMKGPFPNVKFVPTGGVNLDNVCEWFKAGVLAVGVGSALVKGTPDEVREKAKAFVEKIRGCTE | soluble |
| MGSDKIHHHHHHMKNLLDLTGKLNIYSPKFNRYQTSLMKIDMHRTKLEQKQPHFDAQKRRKKECKNSNTPFVRPKLELPHGHNKLLLHSCCAPCSGEVMEAIHASGIDFTIYFYNPNIHPLKEYLIRKEENIRFAEKWGIPFIDADYDRQNWFDRAKGMEDEPERGIRCTMCFDMRFEKAAQYAHENGFPVFTSCLGISRWKDMNQINGCGHRAAEKYDDVVYWDYNWRKGGGSQRMIEISKRERFYQQEYCGCVYSLRDTNKWREANGRQKIEIGKLYYSADK | not soluble |
| MGSDKIHHHHHHMKNNLNNILEDSLNYKIGETLDELKSIKKLDEIFSKRKDQLYREKDEGKKVYGRFCVFVPTEIICAADAIPVGLCGGKESTIPSAEEDLPRNICPLIKSSYGFKKDKACPYFEASDVIVGETTCDGKKKMFEHMAELSEMYVMHLPHFKDERSYELWLKEVYDFKDYVEKFTGNKITEEKLKEAIDEENEERMLSHKLYELRSQIPTPITGKDALKIFQRSFLLDIKDRLAILKEVISELEERVKNGEGYTGKRILVAGCPMVAGNTKIVDIIEEVGGLVVGEETCTGTRKFDNLVNGYTIDDLAERYFKINCASAFKNDSRIERIKELVKEQNADGVVYYTLQYCHTFNVEGALIEKELKNLGIPIIRIETDYSESDKEQIKTRLEAFVEMI | not soluble |
| MGSDKIHHHHHHMKNPNTVISSDYGPIIINLNDNAIGRQISQYGYWATDDINIINTLVNVQLDKFGQIMFYDVGANIGTHSLAIAKTHPDTVAIRAFEAQRQVFNMLCGTMAINGLSNVHCHHNAISEKIGDFIDIPIPDYNSANNFGSLELIPPKNSDNQGIIHSGKMESVKTLSIDSFNEKVDFIKMDIEGMEDKALLGAINTIEHHRPILFLEILKTDVNFVMTFLRERGYLGFQKSFDLIAIPIEYQLQVNGTNRVF | not soluble |
| MGSDKIHHHHHHMKPGFVDPVFDAQAVFRAALLATAYPGRVVPLDRTLTAPRPFSSATAALCLSLMDFETPAWLDNSLDCGELTAWLRFHCSLPLTETAGEARFAIVSDPANLPRLCELHPGDAEYPDRSTTLIIQVPSFTDGPTTTWTGPGVNGSIPVGIAGLPFWFWADWDLNSELYPRGIDVVFTSGNAVIGLPRTIKVEA | not soluble |
| MGSDKIHHHHHHMKPITVLVSVDSNSVLMGARHFLNYFRDLVKEHNLEDTVDVLETGSMGIYPEGVIVSVLPDGVFYVVRNELDVRRIFEEHILKGRRVLDLEIPESQIKGTVEVEKVAEETRIVLKNVGEIDPTRIEEYIARDGYFALAKALQMEPGEIIEEIKRSGLRGRGGAGFPTGLKWEFTYKASADQKYVLCNADEGEPGTFKDRLIMEGDPHSLIEGMIIAGYAVGATKGYIYIRGEYHSSIEILKKAVEQAYEYGFLGENILGSGFNFDLKIRLGAGAYVAGEETALIESIEGKPARPRLKPPYPPTFGLFGKPTVVNNVETFVNVPRIIMNGAEWFKKFGTESSPGTKVFSLVGNVVRKGIVEVPMGVTVRDLIFKFGGGIEGGRKLKVVQTGGSAGTFIGPDKLDVPLDFDSYAKYGVSLGSGVILVADETHCVVDLALTVMRFFEHESCGKCTPCREGTRMIVNILERISRGEGKKEDLDTLREIARNAGETSFCGLGQSIPVPLLSIVDNFEEEFKAHIGADKCPVGVCEFKKKKEKKKIGVRKP | not soluble |
